The term Kd denotes the equilibrium constant for the complex coming apart.

Test [1] is described as follows: Fluorimetric titration (intrinsic fluorescence quenching) of CBG with cortisol. The class given is binding. The settings on record: for Kd / Fold change in Kd (cortisol) on reactive centre loop cleavage, S to R: physiological temperature (37°C); for Fold change in Kd (cortisol) on reactive centre loop cleavage, S to R: disulphide mutants in absence of TCEP. Here is the method:
CBG is known to bind cortisol with a one-to-one stoichiometry, [19]. Therefore, the dissociation constant, which is a measure of binding affinity, is given by the following equation: [drawing 1] (1) where [E]f is the concentration of free CBG, [L]f is the concentration of free ligand, and [E·L] is the concentration of the CBG-ligand complex.
(§1) Fluorescence spectroscopy was used to study the CBG-ligand interactions. Experiments were performed on an LS55 120V fluorescence spectrometer (Perkin Elmer), and the data were read and recorded using their proprietary FL WinLab software. For binding studies of CBG with cortisol, the excitation wavelength was set at 280 nm and the emission was detected at 350 nm, with a 315 nm cut-off filter used to prevent the excitation laser from leaching into the emission channel. For the binding studies of engineered CBG with L-T4-thyroxine-6-carboxyfluorescein, the excitation wavelength was set at 495 nm and emission was recorded at 520 nm whilst applying a 515 nm cut-off filter.
The cortisol stock solution was prepared by dissolving lyophilised cortisol (Sigma Aldrich) in 80% ethanol to make a 500 µM solution, which was then diluted with water to make solutions of 20, 40 and 80 µM, with water being used as a negative control. Aliquots of the ligand solutions were then titrated into 800 µl of a 200 nM solution of CBG made by diluting the protein stock with a buffer containing 10 mM Tris-HCl, pH 7.4, 150 mM NaCl, 1 mM EDTA, 0.1% v/v PEG 8000, and the decrease in fluorescence due to quenching was measured.
(§2) In both cases, the data were fitted using Prism 5 (GraphPad Software) to the following equation to obtain the dissociation constant, Kd: [drawing 2] (2) where ΔF is the fluorescence change, ΔFM is the maximum change in fluorescence signal, [L]t is the total concentration of ligand added and [E]t is the total protein concentration.

Test [2] is described as follows: Fluorimetric titration of L-T4-thyroxine-6-carboxyfluorescein with engineered CBG. The class given is binding. Conditions: 25°C. Here is the method: as §1
L-T4-thyroxine-6-carboxyfluorescein was previously synthesised and purified as a 1.09 µM solution with acetonitrile as its solvent. This was diluted into a 5 nM solution with a buffer containing 10 mM Tris-HCl, pH 7.4, 150 mM NaCl, 1 mM EDTA, 0.1% v/v PEG 8000. Aliquots of the engineered CBG were titrated into 800 µl of this solution, and increments in fluorescence signal were monitored.
as §2

Setting [3] is: intact S-state, read-out: Kd for cortisol, S (uncleaved) conformation.
The mark [4] stands for this setting: reactive centre loop-cleaved R-state, read-out: Kd for cortisol, R (cleaved) conformation.

Numbering of substitutions follows the chain as printed. Names and notes keep the numbering of the source.

B1: P1-Arg + V336L: Human CBG with P14 Val336Leu on T349R (P1 Arg) background, thrombin-cleavable (protein, UniProt P08185 23-405, looked up, variant V336L T349R)
Corticosteroid-binding …: MDPNAAYVNMSNHHRGLASANVDFAFSLYKHLVALSPKKNIFISPVSISMALAMLSLGTCGHTRAQLLQGLGFNLTERSETEIHQGFQHLHQLFAKSDTSLEMTMGNALFLDGSLELLESFSADIKHYYESEVLAMNFQDWATASRQINSYVKNKTQGKIVDLFSGLDSPAILVLVNYIFFKGTWTQPFDLASTREENFYVDETTVVKVPMMLQSSTISYLHDSELPCQLVQMNYVGNGTVFFILPDKGKMNTVIAALSRDTINRWSAGLTSSQVDLYIPKVTISGVYDLGDVLEEMGIADLFTNQANFSRITQDAQLKSSKVVHKAVLQLNEEGLDTAGSTGVTLNLRSKPIILRFNQPFIIMIFDHFTWSSLFLARVMNPV
Consider B1, for which the Kd in test [1] (setting [3]) was determined as 0.295 ± 0.044 µM; in test [1] (setting [4]), 2.42 ± 0.2 µM. For the same molecule, the “Fold change in Kd (cortisol) on reactive centre loop cleavage, S to R” value (“Fold change in Kd (cortisol)” below) in test [1] came to 8.2 fold.

B2: P1-Arg + V336I: Human CBG with P14 Val336Ile on T349R (P1 Arg) background, thrombin-cleavable (protein, UniProt P08185 23-405, looked up, variant V336I T349R)
Corticosteroid-binding …: B1 Corticosteroid-binding … with L336I
With B2, the results for the Kd in test [1] (setting [3]) and in test [1] (setting [4]) were 0.326 ± 0.046 µM and 3.42 ± 0.44 µM, respectively. Further, in test [1], the “Fold change in Kd (cortisol)” value is 10 fold.

B3: P1-Arg + S100C-V236C-V336I: Human CBG combining S100C-V236C disulphide and V336I on T349R background (protein, UniProt P08185 23-405, looked up, variant S100C V236C V336I T349R)
Corticosteroid-binding …: B1 Corticosteroid-binding … with S100C, V236C, L336I
Take B3: the Kd is 0.297 ± 0.04 µM in test [1] (setting [3]) and 2.26 ± 0.32 µM in test [1] (setting [4]). Besides, in test [1], the “Fold change in Kd (cortisol)” value was 7.6 fold.

B4: P1-Arg + S100C-V236C: Human CBG with Ser100Cys/Val236Cys disulphide mutations on T349R background (PDB 4C41, cleaved) (protein, UniProt P08185 23-405, looked up, variant S100C V236C T349R)
Corticosteroid-binding …: B1 Corticosteroid-binding … with S100C, V236C, L336V
For B4, in test [1] (37°C, reducing agent TCEP present), the “Change in cortisol binding affinity after reactive loop cleavage in presence of TCEP” value is given as “very similar to that of wild-type CBG”. The results for the Kd in test [1] (setting [3]) and in test [1] (setting [4]) were 0.278 ± 0.064 µM and 1.8 ± 0.049 µM, respectively. The “Fold change in Kd (cortisol)” value in test [1] was 6.5 fold.

B5: P1-Arg + S100C-V236C-V336L: Human CBG combining S100C-V236C disulphide and V336L on T349R background (protein, UniProt P08185 23-405, looked up, variant S100C V236C V336L T349R)
Corticosteroid-binding …: B1 Corticosteroid-binding … with S100C, V236C
In the case of B5, the Kd was found to be 0.252 ± 0.017 µM in test [1] (setting [3]) and 1.6 ± 0.32 µM in test [1] (setting [4]). The “Fold change in Kd (cortisol)” value in test [1] came to 6.4 fold.

B6: TBG: Thyroxine binding globulin, hormone-carrying serpin, comparator (protein, UniProt P05543 21-415, looked up)
Thyroxine-binding globulin: ASPEGKVTACHSSQPNATLYKMSSINADFAFNLYRRFTVETPDKNIFFSPVSISAALVMLSFGACCSTQTEIVETLGFNLTDTPMVEIQHGFQHLICSLNFPKKELELQIGNALFIGKHLKPLAKFLNDVKTLYETEVFSTDFSNISAAKQEINSHVEMQTKGKVVGLIQDLKPNTIMVLVNYIHFKAQWANPFDPSKTEDSSSFLIDKTTTVQVPMMHQMEQYYHLVDMELNCTVLQMDYSKNALALFVLPKEGQMESVEAAMSSKTLKKWNRLLQKGWVDLFVPKFSISATYDLGATLLKMGIQHAYSENADFSGLTEDNGLKLSNAAHKAVLHIGEKGTEAAAVPEVELSDQPENTFLHPIIQIDRSFMLLILERSTRSILFLGKVVNPTEA
On to B6, for which the Kd in test [2] came to 0.00073 µM.

(Values after publication PMC4245140, “Towards Engineering Hormone-Binding Globulins as Drug Delivery Agents” (PLoS ONE, 2014).)
